# Measured values published in the domain aggregation screens of Martell et al. (2025).
# Assay: soluble fraction after stress (log2 fold change); higher = more stays soluble; pooled small domains, quantitative proteomics
# Conditions: stress: pH 4
# Summary of the method: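 Values are on a log2 scale, where higher means more of the domain stayed soluble after pH 4 stress. They are fold changes in the soluble amount of each domain from pooled custom libraries, measured by high-throughput quantitative proteomics. The fold change is taken to reflect aggregation propensity.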
row,Sequence,soluble fraction (log2)
1,HMDRVMPVPEALIGMRFDIAVSRMLGVSRSQAAAYIDRGQVSIAGRGSQRSAQKSEKLVQGDSIEVAIA,0.186
2,HMQKADFDYGDYVDLGLAMGRQSRQLREAVGIKLGIGYANSKRFYQRLQTFGISLAELKQAVEEAENDQQN,0.149
3,HMVDLAPTEEIIKNLPNNSRSLLIPTLQKIQNAYRYLPSPAMELLSEFLNVTRAEIYGVISFYPSLL,0.129
4,HMEEMTIRQKRTMIFFIEATKHILQEDGYDHLTIREIAQRAGYNAATLYHYFRDLDELIIYGSVG,-0.602
5,HMPNQLLELVEMEIRDLLNEYEFPGDDTPIIQGSALKALEDPMGPWGDKIMDLMDAVDSYIPDPE,-1.46
6,HMENPLETYYSQWVSAIKREHPEASFVKDTDGKYYVEGLTKNRLAVIYENPHLVRLVNATTNLHVE,0.14
7,HMEWVVVPDVRRQLLPEAQRRVNKARLRLEVAGGWPAEPLLAMVVDQKPGPETRVPLNSIVVVVVRNLP,-0.0893
8,HMAGGVFELTGKVTADAKAGDLVYVKAATGAGTKPVVTTVKTGADVIIGWLKEPVSSASVDQKMQVVLA,0.22
9,HMARRKRDIDSDINVKVFEHWLDNLDSASRESFSAFAEETFSPIQVYLYAKFLGYESSIIAVDHWVAVAYP,-0.574
10,HMKEYRKEGHLYFVTEDRNNEIYLWDFTDKPKHEFKEIITSVELQKVAKEGAMLQYKNGKYELYS,-0.0848
11,HMLRTLSTSEFAEAIGISESSARRLADSGDLRIRRTKGGHRKIPAEEAIRYAREIQATVVRPDLLGLST,-0.151
12,HMTPTVEAAKEEVLRVLASAAPRGLTRTELEAEVSFRRTKLRDTLVELERIGRIDSVGRRGNATTYRLIG,-0.0736
13,HMHSEISGGSKDPFRFMPHLGVEDIHAETDRLSGSGVEFIREPDQESWGGWVATFKDPDGNILQLLQL,-0.0468
14,HMADRLITLSEVASLLRVSRHTVQAWISPSSPNHRPEFAIMARHAGRRTVFIEAEVTAWLDQRRG,-0.7
15,HMKISQSRKAGKLVLESELKRGGVSLDQYRGGRMSRILELIGVKSLNELLTDLGTGKKTGALVAERFFSGL,-0.036
16,HMTKRTEPSILQNFDTEIAELIAKNRGISIMDALRIFLASKTHEMLENDEMKLWYFSPLAVFDMWENE,-0.61
17,HMLPGLGPIERAQFMLQAIPGISPTRSAALIDKFGSIAGIAQASIKDIQTIEGIGKKTATTLYEVLNAG,-0.223
18,HMVFKSAQEGLDFYSKQLNDVDATLGRIRRGEESGNGLYGSNRVKNLEEQRKKLDSFVTAYRNAVNAT,0.177
19,HMSNTPHSREVLLEMDAVRRLLAVGEEKGEVDRADLQGAFEEAELGRGDLDGVLSILREYDVPLAR,-0.15
20,HMNLAPLLTEYVQINFRRASEMKTYLEQANLISERGFLLADDQTNILMVRETGASIEEIRRTLNRF,-1.61
21,HMDSQSVFADLVKSLSQKIASIPVWFEYTKNEQYDLISSYVSAKLKDLGVEFSQEEKEKFITMFMNS,-0.34
22,HMEDSEYDRLLAEIDEGIRKAIETLEPVELSPQNARVRRIQHQIIEKYQLHSDSVGEEPYRRVRIL,-1.03
23,HMFGIEIPEEAGKLQDYTLTDDDLEGGNTLKEIQFPQGARVVIIRRDDKFIIPDGSVELQSGDQLLIIYGE,-1.81
24,HMAEVRTLLVPIELAGMRFDQVLAELLPEFSRSRLAAWIKSGDALLDGHDAKPKGVVRGGEQIEIRLA,-0.167
25,HMDQDIILHKVQPGDTLSKILLHYHSHQDRNKLQGLIAESMTANPFIKNPDLIYPGQLIQVPVPA,0.124

row,Sequence,soluble fraction (log2)
1,HMELEENTERVLNILIENDIISENDIAEKLEVKINGARKALYKLKEVGFVEYTKERDEEKKWWYIYFWKLN,-0.36
2,HMVTEKNALTIEIEDLTKRFGNQRESLLPILQEVQLKHGHISDFAQQEIARLLDIHPVEVYGVVTFFSFLS,-2.43
3,HMKTILEKDQRLAKYISYLIKRKRLSPEQVIEHLKTDDHGYEKYPKSINTIYAAIDKGLIPSVTRQDM,≥ 0.43
4,HMGLNVSYRMDGENVVETIIFSGATMIRTVTPTGTMTIKTIENGSTSTAKVNADYSVYKKIYEAQY,-1.03
5,HMEYKNYYDSPVGRLELLSDGVSLTAVLFENQQGDGTREENTSLAIFKEATQWLDAYFKGDNPEITIPL,0.33
6,HMAQPIPSGADIRAAREAAGMTLRRFAEYIAGPDFSTWSRYETGKPIRVKNISPEVWQRVRKFIAQNKG,0.129
7,HMRPRQDRSEETRDRILDAVVELIAERGLAGVSHRAVADRAGVSLSATSYYFGSKAELERAALEEHYRR,-0.992
8,HMEKKKVPEVAGQDEAAARNVMTNSGFVVDVEQKEDDNVPAGKVITTAPAGGVEVVEGTKIILYVSKGSN,0.0237
9,HMRNSFTVENTGERLDVFLTGQMPEFSRSHIQKLIASGQAWVNGVNRKGNFKLKPHDVVELEVPEPE,0.169
10,HMNVYEVKFGDTLDEIIKTYLFDIPVKKSILRQAVILANPHAFRRNNPHWMYSDRQLKLPELQDIRRAIF,-0.74
11,HMLMRSPDFLIGWFQNLVAKRETFNDQVQAKNLIEAGKQHIQGEDFDRLLEVNRRLFSLLPQREQE,-1.27
12,HMFAVPAPEVDDILSEKKVDVLLLGPQVRYLLEQFTEKLKDKNIPIGVIPMVDYGMMNGSKVLALAEELIG,-0.288
13,HMSDKFNALWIILNKLDKKEKVTARSLMEDLEVSERSVYRYITTLQVAGFPVDYDRAVNSYVFSDGYTLK,-2.16
14,HMSFMPDPSIHDAITYTVRSGDYLGKISTTFGVKVSDLQKWNSIKSNIIYPGQKLTVWVSSNKRESLQ,0.194
15,HMENLQLQQLVKGLPEKMQEIVILRFSQELTMREIADIVNLPMRTVQSQLRLALKILKKEMG,0.145
16,HMRRARVAGKGHFTGEDAMAVYRELEALFGETETLYLPGHRPFEAVLSKLALIGVPEKNTVPYTFAFVET,-1.09
17,HMLTYPEHVRLRMIELRKTRSLSQSEFGTYLGLSYQTISSLELGRHEWSLAHIQTALLRFELPPNYF,-1.82
18,HMNQADNFNSLTKREKDVLLLVTQGESNKSIADKLVLSEVTVKSHLNSIFKKLNVTNRTQAVLVAMQMNLV,-0.85
19,HMKKAMIISTKRGTPAAELDKIIREFEAKGLSVTMIRGTDYNVFGLVGDTTVIDEKQVRANPYVENVQRV,-0.325
20,HMEALPSNLRRLRLEAQLTLDRLGALSGVSRAMISKIERGASVPTATMLGKLAAALQVSLSQLL,-0.263
21,HMGASTQLVEIKNAYENGEWQNVIDLAGKLHEKYNGSEEDKEAQEMAKNSQSKLDEAAAAKAAEEA,0.184
22,HMTNTYEVIKNDIIFGVLPPLKKLKLLELKKKYITSVSTLREILSRLSGDGFVVSKEQKGFYVSAV,-0.22
23,HMSLEEIPLEERLGPGGLDPVAVYDSLPREMRDAFDSGSVSALREFVNALPAEDAARHMKAMVDSGLWVPT,-0.794
24,HMRTGLSGMIGEIGIVKQAIDPEGKVAVHGELWKARADVALAAGQTVRVVAVDGLTMTVEATDSK,0.0837
25,HMRIGINDRIHEIVDVLRLKKSTPFEDLFSGLVTRFDLVITFLALLEMGKLRLLRLYQTDPLAPLHVEYTG,0.0416

row,Sequence,soluble fraction (log2)
1,HMGNIALAIARFREMIAEDPNLQPVRLHLAMALMADHQDEAARGQLEKLRSDQLPDDIRKIVDDALAALR,-0.487
2,HMHMELHEKIRLARELNKWSQEEVAEKLEMSPSGYAKIERGETALNIPRLEQIAEIFNIDIWELVKA,-1.48
3,HMAKRTVPSVAEAIDNFRRQHRRMPSYAEMLPLLGVRSKSVVHFWINKLLENGLLEKDDKGYLTPGS,-0.241
4,HMEPEDVIAMERYLASGAIKGIGVTLAGRIIKKFQKETFHIIEEEPERLSEVKGISEKLAREIYQQFTQK,-0.187
5,HMSESAGKALDILFYLARVEDEVSLARLSKETGMNKATALRYLAVLESWGVVEKRPSGWSLGLSLFELGSK,-1.03
6,HMAEAIVMSTAAPVKSSPDPQSKDIFVLHEGTKVAVGDSLGDWREIRIADGNKGWVLVSAIEMI,-0.173
7,HMRIQTVDYNTFISMVEDGKVDAAEIQQQENRILFSDQDQKVYKTAMVPDDDLTQRLLDAGVSTNG,-0.837
8,HMVSDSAELSAFVADVIKENAQAVADYKGGKTNVFGWLMGQIIKKSGGKATPAAAAALLKAELEK,-0.14
9,HMIDQNEDLLSGYIDEVLSQNPDKVNEYLKGKSGLIGFFMGQIKQKSATALDAALLKSQLETALEKLRIK,-0.00948
10,HMSSPTAKATGSSVNIRKSASTGAAVLKRVEKGTVLEAVSISDGWVKVKYSGVTGYVSADYVKVSGL,0.154
11,HMKKPANLISEDRMVEVLYDVIIINTAKGVNKQLLQNNINNPLNYIYRSHGIDSLQFAESNAYYTS,-0.798
12,HMAEQLGNSRTANMVMLGAMIERTGVISIDSAMEALKATFGPKKEHLLPINRQAMEAGAAAARAV,-0.517
13,HMIEDMTINIEERLSLNGDIKKSEYILQYIKPDFIRKVILSPELNKGEIYIYDSKKKVMYLPLFDQVSEEI,-1.09
14,HMYHIYPVADNDTPKLSADRLEYSLSNALLTNKLLNIDEIKKIYNDVILDKDEDGTLELSFKS,0.167
15,HMRTTTGSEGMIGSIGKAKTDLAPDGKIFIHGELWDATSSSPVSAGQKIEVTQIEGLKLHVKPVL,0.12
16,HMLRVVSTRQAFDIVRGWADAHPQDPEHNKTLDELEELAKKEVWDDWSRTNEIAERLNALLVSIGANVRTA,-0.314
17,HMISADSSKVDTLVQVYSNMKPIQAAQVFEKMDEDLVIEILSRMKKKNAADILNLIKTEKAQVFAEKYA,-0.0774
18,HMFHDPTMEETLINLKGITNEVLSLLSSSKIKKLEDLAEMSVPELRDIVENISDEEASALIMEARKPWF,-1.81
19,HMNSKSFIFHIEDEEGIRLDVFLADNLPDVSRSYVQKLIDEEHVKVNGQSAKSRLKTVSGMEITVDVPAPK,-0.543
20,HMPLSVRQRMSDILSNLKTSDFTNFADLFDPKEGRTGITVTFIAILELLREFLIEVVQSDHYQPLHVRAAS,0.115
21,HMNYGDVIEGQIMHVDRDELLVDIGSKSEGIIPAREFSTLTDEERAALSVGDHVLVFVVQAENQEGQAV,0.0111
22,HMAEEFESMTEARRLELARLVDSRGFVRVTDAAEELGVSDVTIRGDLSELERRGLLTRVHGGAMPVT,-0.366
23,HMEDEVSSSAAYQALLEKGVSKTLARSWVIDYGEAYVLDKVDLTTSQAARGKIKSSTAGFLKAAIEEDFHN,-0.765
24,HMYPDNSGDIQQLAQNIFRQENVSVDRDGLALISSRLGSDHAATRSEIEKLALLAGPGGTLTFETISEVLG,-0.942
25,HMLPLHFIEIVSLKKIDTLTKRKELINYAFSKNEKTYIYKLAFKKKSELDNLYKEINLFNEIINIDIRHS,-0.943
